One experiment concerns the target RBD of Rf1 (Bat SARS CoV Rf1/2004, UniProt Q0QDZ0). Kind of experiment: ELISA.
For the next experiment, the target named is SARS-CoV-2 WA1 RBD (SARS-CoV-2, UniProt P0DTC2). In words: crystal structure.

B1: 10-40 (antibody, V domains shown)
VH: QLQLQESGPGLVKPSETLSLTCTVSGGSISSSNFYWGWIRQPPGKGLEWIASITYSGRTFYNPSLKSRVAISVDTSKNQFSLKLSSVTAADTAVYYCARTFPSYYDRSGYHYLNYGMDVWGQGTTVTVSS
VL: NFMLTQPHSMSESPGKTVTISCTRSSGSIASNYVQWYQQRPGSSPTTVIYEDNQRPSGVPDRFSGSIDSSSNSASLTISGLKTEDEADYYCQSYDSSSWVFGGGTKLTVL
Turning to B1, the binding result with RBD of Rf1 is “binds”.

B2: 10-40 Fab (Fab, V domains shown)
VH: QLQLQESGPGLVKPSETLSLTCTVSGGSISSSNFYWGWIRQPPGKGLEWIASITYSGRTFYNPSLKSRVAISVDTSKNQFSLKLSSVTAADTAVYYCARTFPSYYDRSGYHYLNYGMDVWGQGTTVTVSS
VL: NFMLTQPHSMSESPGKTVTISCTRSSGSIASNYVQWYQQRPGSSPTTVIYEDNQRPSGVPDRFSGSIDSSSNSASLTISGLKTEDEADYYCQSYDSSSWVFGGGTKLTVL
In the case of B2, the binding result with SARS-CoV-2 WA1 RBD is “binds”.

B3: 10-28 (antibody, V domains shown)
VH: QVQLVESGGGVVQPGRSLRLSCAASGFTFSSYDMHWVRQAPGKGLEWVAVISYDGSSKFYAESVKGRFTISRDNSKNTLYLQMNSLRAEETAVYYCVKDGEQLVPLFDYWGQGTLVTVSS
VL: not shown
For B3, in the experiment with RBD of Rf1, the binding result is “binds”.

B4: 10-28 Fab (Fab, V domains shown)
VH: QVQLVESGGGVVQPGRSLRLSCAASGFTFSSYDMHWVRQAPGKGLEWVAVISYDGSSKFYAESVKGRFTISRDNSKNTLYLQMNSLRAEETAVYYCVKDGEQLVPLFDYWGQGTLVTVSS
VL: not shown
For the molecule B4, the binding result with SARS-CoV-2 WA1 RBD is “binds”.

(Values after article doi:10.1101/2021.12.11.472236 (bioRxiv, 2021).)
